# From patent publication US20060025342A1 (OSTEOTROPHIN, published 2006)
# Where two headings read alike, the source gives them in different places. Non-standard residues stand in square brackets, D forms with d. No end group written: not given here. Nle = CCCC[C@H](N)C(=O)O
# T1: human PTH/PTHrP receptor (PTH1 receptor) (human, UniProt Q03431 27-593)
# T1 sequence (looked up): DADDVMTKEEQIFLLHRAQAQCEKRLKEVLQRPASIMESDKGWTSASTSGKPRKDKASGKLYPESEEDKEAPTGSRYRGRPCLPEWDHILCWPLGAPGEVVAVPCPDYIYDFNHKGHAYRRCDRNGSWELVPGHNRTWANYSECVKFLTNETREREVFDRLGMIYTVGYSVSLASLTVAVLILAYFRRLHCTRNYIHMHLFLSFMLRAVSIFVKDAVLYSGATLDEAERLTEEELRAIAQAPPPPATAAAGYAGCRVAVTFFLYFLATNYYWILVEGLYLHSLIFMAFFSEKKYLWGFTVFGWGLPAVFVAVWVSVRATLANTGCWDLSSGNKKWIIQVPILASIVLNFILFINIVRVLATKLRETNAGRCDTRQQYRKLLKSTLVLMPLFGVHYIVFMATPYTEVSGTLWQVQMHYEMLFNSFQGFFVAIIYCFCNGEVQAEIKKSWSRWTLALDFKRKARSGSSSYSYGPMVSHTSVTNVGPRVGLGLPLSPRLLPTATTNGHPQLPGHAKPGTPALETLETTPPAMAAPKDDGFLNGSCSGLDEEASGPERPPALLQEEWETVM
# T2: canine renal PTH/PTHrP receptor (canine, UniProt Q9TU31 29-595)
# T2 construct: whole, on cells; Native receptor in renal cortical membranes of adult mongrel dogs, not intact cells; also called canine renal receptors; receptor in canine renal cortical membranes (CRCM)
# T2 sequence (looked up): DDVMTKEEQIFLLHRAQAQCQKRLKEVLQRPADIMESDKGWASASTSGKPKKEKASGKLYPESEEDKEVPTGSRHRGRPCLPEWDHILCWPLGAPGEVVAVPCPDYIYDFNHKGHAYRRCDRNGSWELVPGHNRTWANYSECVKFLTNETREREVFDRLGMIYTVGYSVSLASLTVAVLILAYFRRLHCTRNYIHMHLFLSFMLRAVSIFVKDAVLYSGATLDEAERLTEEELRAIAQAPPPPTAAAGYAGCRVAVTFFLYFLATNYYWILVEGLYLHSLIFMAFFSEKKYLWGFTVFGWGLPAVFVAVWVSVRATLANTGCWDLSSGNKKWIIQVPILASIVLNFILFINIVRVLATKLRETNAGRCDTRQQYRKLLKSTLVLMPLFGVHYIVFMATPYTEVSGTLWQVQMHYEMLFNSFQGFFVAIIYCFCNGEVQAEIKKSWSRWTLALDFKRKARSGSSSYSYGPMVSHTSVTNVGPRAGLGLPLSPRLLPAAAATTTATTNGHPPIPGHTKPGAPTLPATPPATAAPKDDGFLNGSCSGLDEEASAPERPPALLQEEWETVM
# Tests used:
# [1] = target: T1, human PTH/PTHrP receptor (PTH1 receptor); test: competition of 125I-(Tyr36)hPTHrP-(1-36)NH2 binding, SaOS-2 membranes, 30 C, 60 min
# [2] = target: T1, human PTH/PTHrP receptor (PTH1 receptor); test: cell-based or functional assay
# [3] = target: T1, human PTH/PTHrP receptor (PTH1 receptor); test: competition of 125I-(Tyr36)hPTHrP-(1-36)NH2 binding, human renal cortical membranes, 30 C, 30 min
# [4] = target: T2, canine renal PTH/PTHrP receptor; test: competition of 125I-[Nle8,18,Tyr34]hPTH-(1-34)amide binding, canine renal cortical membranes, 20 C
# Procedure: (§1) Binding assays were conducted in siliconized 12×75 mm borosilicate glass test tubes at 20° C. in a final volume of 0.2 ml. […] Binding was initiated by adding 50 μg membrane. At the end of the incubation periods described, 50 μl triplicate aliquots were layered onto 300 μl of iced binding buffer containing 1.0% BSA in 500 μl polypropylene tubes. The tubes were centrifuged at approximately 16,000×g for three min at 4° C. in a microcentrifuge. The supernatant was aspirated and the tip of the tube containing the membrane-associated radioligand was cut off. Radioactivity in both the pellet and supernatant was measured.
# (§2) Dissociation constants (Kd) were determined by Scatchard analysis of the data obtained from competitive binding experiments using radioligand and increasing concentrations of unlabeled ligand. […] Statistical differences were assessed by paired Student's t test. […] Significance was determined using a partial F-test.
# [5] = target: T2, canine renal PTH/PTHrP receptor; test: homologous competition of 125I-[Nle8,18,Tyr34]hPTH-(1-34)amide binding, canine renal cortical membranes, 20 C
# Procedure: as §1, §2
# [6] = target: T2, canine renal PTH/PTHrP receptor; test: competition of 125I-[Tyr36]PTHrP-(1-36)amide binding, canine renal cortical membranes, 20 C; printed as binding dissociation constant, heterologous competitor (Ki from IC50 by paragraph 214)
# Procedure: as §1, §2
# [7] = target: T2, canine renal PTH/PTHrP receptor; test: competition of 125I-[Tyr36]PTHrP-(1-36)amide binding, canine renal cortical membranes, 20 C
# Procedure: as §1, §2
# [8] = target: T1, human PTH/PTHrP receptor (PTH1 receptor); test: cell-based or functional assay; remark: listed apart in the source
# [9] = target: T1, human PTH/PTHrP receptor (PTH1 receptor); test: cell-based or functional assay; remark: listed apart in the source
# [10] = target: T1, human PTH/PTHrP receptor (PTH1 receptor); test: competition of 125I-(Tyr36)hPTHrP-(1-36)NH2 binding, intact SaOS-2 cells, 15 C, 150 min
# [11] = target: T1, human PTH/PTHrP receptor (PTH1 receptor); test: cell-based or functional assay; remark: listed apart in the source
# [12] = target: T1, human PTH/PTHrP receptor (PTH1 receptor); test: competition of 125I-(Tyr36)hPTHrP-(1-36)NH2 binding, human renal cortical membranes, 30 C, 30 min
# [13] = target: T1, human PTH/PTHrP receptor (PTH1 receptor); test: as above; remark: listed apart in the source
# [14] = target: T2, canine renal PTH/PTHrP receptor; test: competition of 125I-[Nle8,18,Tyr34]hPTH-(1-34)amide binding, canine renal cortical membranes, 20 C; Ki from IC50
# [15] = target: T2, canine renal PTH/PTHrP receptor; test: cell-based or functional assay
# [16] = target: T2, canine renal PTH/PTHrP receptor; test: competition of 125I-[Tyr36]PTHrP-(1-36)amide binding, canine renal cortical membranes, 20 C; Ki from IC50
# [17] = target: T1, human PTH/PTHrP receptor (PTH1 receptor); test: competition binding, human RCM and SaOS-2 membranes
# [18] = target: T1, human PTH/PTHrP receptor (PTH1 receptor); test: competition of 125I-(Tyr36)hPTHrP-(1-36)NH2 binding, human RCM, SaOS-2 membranes, intact SaOS-2 cells
IC50 [1],"Adenylate cyclase (EC50), SaOS cells (intact, 15 C, 60 min) [9]","Adenylate cyclase (EC50), kidney membranes (human RCM) [9]",IC50 [10],"Adenylate cyclase (EC50), SaOS membranes [11]","Adenylate cyclase (EC50), kidney membranes (human RCM) [11]",IC50 [12],IC50 [13],Molecule,also measured
1.1 nM,–,–,–,–,–,–,–,(Tyr^36) chicken (c) PTHrP-(1-36)amide (from UniProt P17251 38-73) (peptide),"Adenylate cyclase (EC50), SaOS cells (intact, 15 C, 60 min) [2]: 0.8 nM; Adenylate cyclase (EC50), SaOS membranes [2]: 0.87 nM; Adenylate cyclase (EC50), kidney membranes (human RCM) [2]: 0.49 nM; IC50 [3]: 0.47 nM"
–,–,–,–,–,–,–,–,"SVSEIQL[Nle]HNLGKHLNS[Nle]ERVEWLRKKLQDVHNY-NH2 (also called NNT-hPTH-(1-34); [Nle^8,18, Tyr^34]hPTH-(1-34)NH2) [[Nle^8,18,Tyr^34]hPTH-(1-34)amide]",fold more potent than PTHrP-(1-36) in inhibiting binding [4]: < 2 fold; Ki [5]: 7.5 nM; Ki [6]: 8.5 nM
–,–,–,–,–,–,–,–,"SPNTKNHPVRFGSDDEGRYLTQETNK (peptide, UniProt P12272 85-110, looked up, range 49-74; Solid phase synthesis) [PTHrP-(49-74)]",binding result [7]: no binding
–,0.9 nM,0.05 nM,0.9 nM,0.09 nM,0.05 nM,–,–,"AVSEIQLMHNLGKHLASVERMQWLRKKLQDVHNF (peptide, UniProt P04089 32-65, looked up, range 1-34; Synthetic, Bachem; also called rPTH-(1-34); rat (r)PTH-(1-34)) [rat PTH-(1-34)]","adenylate cyclase potency against hPTHrP-(1-36), human RCM and SaOS-2 membranes [8]: 10 fold"
2 nM,2.3 nM,1.1 nM,2.8 nM,1.9 nM,1.1 nM,3.6 nM,3.6 nM,"SVSEIQL[Nle]HNLGKHLNS[Nle]ERVEWLRKKLQDVHNY [(Nle^8,18, Tyr^34)hPTH-(1-34)]",–
–,1.2 nM,–,–,0.5 nM,–,–,–,"AVSEIQFMHNLGKHLSSMERVEWLRKKLQDVHNF (peptide, UniProt P01268 32-65, looked up, range 1-34; Synthetic, Bachem; also called bPTH-(1-34); bovine (b)PTH-(1-34)) [bovine PTH-(1-34)]","Ki [14]: 6.1 nM; adenylate cyclase potency against PTHrP-(1-36), standard assay (30 min, 30 C) [15]: 6 fold; adenylate cyclase stimulation against PTHrP-(1-36), binding assay conditions (20 C, 20 min, bacitracin) [15]: 15 fold; Ki [16]: 10.5 nM"
–,–,–,–,–,–,–,–,"CQLLHDWGGSIQDL (also called P1-peptide; P1 peptide) [(Cys^5,Trp^11,Gly^13)PTHrP-(5-18)]",binding result [7]: no binding
8 nM,7.7 nM,0.59 nM,17.5 nM,2.4 nM,0.59 nM,5.1 nM,5.1 nM,"bPTH-(1-84) (ligand, bovine, UniProt P01268 32-115, looked up, range 1-84; From the National Hormone and Pituitary Program (NIDDK); also called bovine PTH-(1-84)) AVSEIQFMHNLGKHLSSMERVEWLRKKLQDVHNFVALGASIAYRDGSSQRPRKKEDNVLVESHQKSLGEADKADVDVLIKAKPQ",fold lower relative affinity than the amino-terminal analogs [17]: ~10 fold
–,–,–,–,–,–,–,–,"RATSEVSPNSKPSPNTKNHPVRFGSDDEGRYLTQETNK (peptide, UniProt P12272 73-110, looked up, range 73-110; Solid phase synthesis) [hPTHrP-(37-74)]",binding result [18]: no binding
20 nM,3.9 nM,5.4 nM,–,16.3 nM,5.4 nM,21.5 nM,21.5 nM,"SVSEMQLMHNLGEHRHTVERQDWLQMKLQDVHSA-NH2 (peptide, UniProt P15743 32-65, looked up, range 1-34; Solid phase synthesis; also called cPTH-(1-34)NH2) [Chicken PTH-(1-34)amide]",–
